Source: patent US20120322725A1

Columns and labels:
Assay in all cases: cell-based or functional assay
[1] = molecular target: glucagon receptor (UniProt P47871)
[2] = molecular target: GLP-1 receptor (UniProt P43220)
[3] = molecular target: T1, GIP receptor (UniProt P48546)
T1 sequence (looked up): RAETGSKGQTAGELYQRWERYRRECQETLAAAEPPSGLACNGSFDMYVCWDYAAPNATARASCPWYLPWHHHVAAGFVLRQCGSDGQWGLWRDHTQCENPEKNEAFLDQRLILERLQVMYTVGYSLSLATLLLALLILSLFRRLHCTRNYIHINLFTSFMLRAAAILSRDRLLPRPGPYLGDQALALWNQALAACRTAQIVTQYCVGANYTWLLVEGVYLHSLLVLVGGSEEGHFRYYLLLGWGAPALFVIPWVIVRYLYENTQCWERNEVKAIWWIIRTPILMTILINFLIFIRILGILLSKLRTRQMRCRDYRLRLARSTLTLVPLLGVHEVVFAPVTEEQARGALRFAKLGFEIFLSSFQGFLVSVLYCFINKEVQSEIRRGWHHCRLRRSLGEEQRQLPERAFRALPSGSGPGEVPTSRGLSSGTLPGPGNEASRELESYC

Chain of glucagon receptor (P47871 26-477 limits assumed): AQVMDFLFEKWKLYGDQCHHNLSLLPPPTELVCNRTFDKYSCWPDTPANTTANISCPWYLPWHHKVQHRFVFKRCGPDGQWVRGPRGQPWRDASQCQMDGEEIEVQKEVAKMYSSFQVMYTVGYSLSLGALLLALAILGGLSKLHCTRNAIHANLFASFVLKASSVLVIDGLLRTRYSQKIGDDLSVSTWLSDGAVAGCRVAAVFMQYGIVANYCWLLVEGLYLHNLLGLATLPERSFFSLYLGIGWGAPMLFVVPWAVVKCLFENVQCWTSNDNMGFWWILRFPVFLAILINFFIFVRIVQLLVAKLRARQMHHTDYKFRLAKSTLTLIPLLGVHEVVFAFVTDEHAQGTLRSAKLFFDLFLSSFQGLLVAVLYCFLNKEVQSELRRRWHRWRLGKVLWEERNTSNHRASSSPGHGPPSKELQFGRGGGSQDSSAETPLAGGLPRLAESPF
Chain of GLP-1 receptor (P43220 24-463 limits assumed): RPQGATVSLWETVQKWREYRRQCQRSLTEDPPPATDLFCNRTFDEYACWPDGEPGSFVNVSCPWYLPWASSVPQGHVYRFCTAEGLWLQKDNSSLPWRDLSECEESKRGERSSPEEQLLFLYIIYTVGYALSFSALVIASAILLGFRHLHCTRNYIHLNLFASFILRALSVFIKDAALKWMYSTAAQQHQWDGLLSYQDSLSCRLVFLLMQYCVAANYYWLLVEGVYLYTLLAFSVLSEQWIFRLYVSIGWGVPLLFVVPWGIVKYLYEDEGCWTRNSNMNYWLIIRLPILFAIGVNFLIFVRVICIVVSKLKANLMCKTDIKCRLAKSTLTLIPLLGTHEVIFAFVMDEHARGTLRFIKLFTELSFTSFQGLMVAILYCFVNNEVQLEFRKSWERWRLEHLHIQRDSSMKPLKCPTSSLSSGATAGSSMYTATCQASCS

Substance	Glucagon IC50 [1] [nM]	GLP-1 (EC50) [2] [nM]	GIP (EC50) [3] [nM]	IC50(nM) (cAMP, inhibit 0.2 mM Glucagon) [1]
PLA6, (E16K20), C24 G(6-29)/A1, Aib2, E3, K40 GIP(1-40)	40.1	367	1.29	–
A1, Aib2, E3 GIP(1-40) (peptide)	–	–	3.89	–
[d-Cys5(20kDaPEG), E9]Glucagon(aa5-29)-NH2 (peptide)	–	–	–	14800
HAibEGT-PLA6, (E16K20), cex, K40(rErEC16) G(1-40) (peptide)	150	0.76	–	–
HAibEGT-PLA6, K10(rErEC16), (E16K20) G(1-29) (peptide)	14.3	0.19	–	–
HAibEGT-PLA6, (E16K20), C24 G(1-29)/A1, Aib2, E3, K40 GIP(1-40)	–	11.7	1.58	–
HAibEGT-PLA6, K10(rErEC16), (E16K20), C24 G(1-29)/A1, Aib2, E3, K40 GIP(1-40)	–	0.813	0.347	–
HAibEGT-PLA6, (E16K20), C24, cex, K40(rErEC16) G(1-40)/A1, Aib2, E3, K40 GIP(1-40)	–	0.363	0.379	–
HAibEGT-PLA6, (E16K20) G(1-29) (peptide)	12	3.6	–	–
